Here are results for 27 molecules from patent US20230203146A1.

Read-outs that look alike come from different tables or passages of the source.

Experiment [1] addresses FLAG tagged human Ang2 (Alexis Biochemicals) (human) (UniProt O15123). Put plainly: competition ELISA, FLAG-hAng2 (0.02 nM) on coated hTie2/Fc. For orientation: In an ELISA, binding on a coated surface is turned into a signal by an enzyme label.
The target is the same in experiment [2]. As to the kind of experiment: competition ELISA, periplasmic extract, FLAG-hAng2 on hTie2/Fc.
Experiment [3] has the same target. As to the kind of experiment: AlphaScreen competition, periplasmic extract, FLAG-hAng2 / biotin-hTie2/Fc. Background: Bead proximity is the source of the signal in Alpha formats.
The target in experiment [4] is FLAG-tagged human Ang2 (human) (UniProt O15123). Put plainly: competition ELISA: FLAG-hAng2 binding to coated hTie2-Fc.
Chain of FLAG-tagged human Ang2 (human) (O15123 19-496): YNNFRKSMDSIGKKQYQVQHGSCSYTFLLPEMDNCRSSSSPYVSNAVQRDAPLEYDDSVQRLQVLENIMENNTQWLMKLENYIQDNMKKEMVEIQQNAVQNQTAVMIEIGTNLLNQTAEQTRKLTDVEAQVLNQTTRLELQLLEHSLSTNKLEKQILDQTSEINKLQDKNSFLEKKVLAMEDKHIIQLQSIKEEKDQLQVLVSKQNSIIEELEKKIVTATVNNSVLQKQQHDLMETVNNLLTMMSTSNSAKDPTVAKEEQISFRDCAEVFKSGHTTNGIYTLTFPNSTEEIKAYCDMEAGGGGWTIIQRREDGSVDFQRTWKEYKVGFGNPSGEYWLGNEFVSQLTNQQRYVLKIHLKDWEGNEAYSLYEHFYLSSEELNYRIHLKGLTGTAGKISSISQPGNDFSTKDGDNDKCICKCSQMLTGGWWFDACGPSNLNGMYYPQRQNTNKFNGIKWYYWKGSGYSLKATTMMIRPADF
Experiment [5] has as its target FLAG-tagged recombinant human Ang1 (human) (UniProt Q15389). Put plainly: ratio of IC50s in hAng1/hTie2 and hAng2/hTie2 competition ELISA.
Experiment [6] concerns the target FLAG-tagged human Ang2 (human) (UniProt O15123). Put plainly: competition ELISA: FLAG-hAng2 binding to coated hTie2-Fc. The source holds these as a separate data set.

Chain of FLAG tagged human Ang2 (Alexis Biochemicals) (human) (O15123 19-496): as above
Chain of FLAG-tagged recombinant human Ang1 (human) (Q15389 20-498 limits assumed): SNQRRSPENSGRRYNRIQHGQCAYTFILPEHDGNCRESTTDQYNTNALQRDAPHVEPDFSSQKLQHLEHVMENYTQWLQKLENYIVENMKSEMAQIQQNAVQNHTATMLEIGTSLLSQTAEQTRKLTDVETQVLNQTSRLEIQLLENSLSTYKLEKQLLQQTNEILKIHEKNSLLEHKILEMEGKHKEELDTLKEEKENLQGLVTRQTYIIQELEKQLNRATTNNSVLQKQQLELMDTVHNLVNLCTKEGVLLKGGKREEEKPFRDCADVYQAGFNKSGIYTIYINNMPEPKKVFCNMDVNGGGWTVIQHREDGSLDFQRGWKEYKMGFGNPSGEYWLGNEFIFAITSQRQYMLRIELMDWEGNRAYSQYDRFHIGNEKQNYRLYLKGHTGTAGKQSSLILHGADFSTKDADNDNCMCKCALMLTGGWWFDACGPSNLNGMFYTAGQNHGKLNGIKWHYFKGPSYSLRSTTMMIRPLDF

B1: VHH 12B03 (VHH, not shown: small tags and cut ends)
VHH: EVQLVESGGGLVQSGGSLRLSCAASGFALDYYTIGWFRQAPGKEREGVSCISGGDTSTYYADSVKGRFTISRDNAKNTVYLQMNSLKPEDTAVYYCATDSAGVPAGPAAVYGSTCSRLEYDYWGQGAQVTVSS
As a reminder, the IC50 is the midpoint of a concentration-inhibition curve. Read a low IC50 as greater potency in that assay. As for B1, the IC50 in experiment [1] stood at 4.6 nM.

B2: VHH 15H04 (VHH, not shown: small tags and cut ends)
VHH: EVQLVESGGGLVQAGGSLGLSCAASERTLPSYVMGWFRQAPGKELEFVAGISWSSGRTYYTDSVKGRFTISRDAAENTWYLQMNSLKPEDTAVYYCASNSVSEPTLHTWQYEASYDYWGQGTQVTVSS
In the case of B2, the % inh in experiment [2] is 82%; in experiment [3] it was 57%. Besides, the IC50 in experiment [1] was 18.6 nM.

B3: VHH 22C07 (VHH, not shown: small tags and cut ends)
VHH: EVQLVESGGGLVQAGGSLRLSCAASGFTFDDYAIGWFRQAPGKEREGVSCISSSDGSTYYADSVKGRFTISSDNAKNTVYLQMNSLKPEDTAVYYCAADFIISSKRLCLDLFGSRGQGTQVTVSS
In the case of B3, the figures for the % inh in experiment [2] and in experiment [3] were 78% and 73%, respectively. Also, the IC50 in experiment [1] worked out at 11 nM.

B4: VHH 00908 (VHH, not shown: small tags and cut ends)
VHH: EVQLVESGGGLVQPGGSLRLSCAASGITLDDYAIGWFRQAPGKEREGVSSIRDNGGSTYYADSVKGRFTISSDNSKNTVYLQMNSLRPEDTAVYYCAAVPAGRLRYGEQWYPIYEYDAWGQGTLVTVSS
The molecule B4 yielded a 50% inhibitory concentration (IC50) in experiment [4] of 0.045 nM. For the same molecule, the hAng1/hAng2 IC50 ratio in experiment [5] was > 192000.

B5: VHH 00919 (VHH, not shown: small tags and cut ends)
VHH: EVQLVESGGGLVQPGGSLRLSCAASGFTLDDYAIGWFRQAPGKEREGVSAIRDNGGSTYYADSVKGRFTISSDNSKNTVYLQMNSLRPEDTAVYYCAAVPAGRLRFGEQWYPLYEYDAWGQGTLVTVSS
Take B5: in experiment [4], the IC50 was 0.9 nM. Also, the hAng1/hAng2 ratio in experiment [5] is > 11200.

B6: VHH 00956 (VHH, not shown: small tags and cut ends)
VHH: EVQLVESGGGLVQPGGSLRLSCAASGFTLDDYAIGWFRQAPGKEREGVSAIRSSGGSTYYADSVKGRFTISSDNSKNTVYLQMNSLRPEDTAVYYCAAVPAGRLRFGEQWYPLYEYDAWGQGTLVTVSS
Take B6: the IC50 in experiment [4] was found to be 1.3 nM. For the same molecule, in experiment [5], the hAng1/hAng2 IC50 ratio is > 7730.

B7: VHH 00933 (VHH, not shown: small tags and cut ends)
VHH: EVQLVESGGGLVQPGGSLRLSCAASGITLDDYAIGWFRQAPGKEREGVSAIRDNGGSTYYADSVKGRFTISSDNSKNTVYLQMNSLRPEDTAVYYCAAVPAGRLRYGEQWYPIYEYDAWGQGTLVTVSS
In experiment [4], B7 yielded an IC50 of 0.056 nM. Further, the hAng1/hAng2 IC50 ratio in experiment [5] was > 180000.

B8: VHH 00938 (VHH, not shown: small tags and cut ends)
VHH: EVQLVESGGGLVQPGGSLRLSCAVSGITLDDYAIGWFRQAPGKEREGVSAIRSSGGSTYYADSVKGRFTISSDNSKNTVYLQMNSLRPEDTAVYYCAAVPAGRLRYGEQWYPIYEYDAWGQGTLVTVSS
Consider B8, for which the IC50 in experiment [4] turned out to be 0.05 nM. Further, the hAng1/hAng2 IC50 ratio in experiment [5] is > 201000.

B9: VHH 00043 (VHH, not shown: small tags and cut ends)
VHH: EVQLVESGGGLVQPGGSLRLSCAASGFTLDDYAIGWFRQAPGKEREGVSSIRDNDGSTYYADSVKGRFTISRDNAKNTVYLQMNSLRPEDTAVYYCAAVPAGRLRFGEQWYPLYEYDAWGQGTLVTVSS
The molecule B9 gave an IC50 in experiment [6] of 9.5 nM.

B10: VHH 00054 (VHH, not shown: small tags and cut ends)
VHH: EVQLVESGGGLVQPGGSLRLSCAASGFTLDDYAIGWFRQAPGKEREGVSSIRDNDGSTYYADSVKGRFTISRDNSKNTVYLQMNSLRPEDTAVYYCAAVPAGRLRFGEQWYPLYEYDAWGQGTLVTVSS
Molecule B10 had an IC50 in experiment [6] of 9.5 nM.

B11: VHH 00053 (VHH, not shown: small tags and cut ends)
VHH: EVQLVESGGGLVQPGGSLRLSCAASGFTLDDYAIGWFRQAPGKEREGVSSIRDNDGSTYYADSVKGRFTISRDNDKNTVYLQMNSLRPEDTAVYYCAAVPAGRLRFGEQWYPLYEYDAWGQGTLVTVSS
B11 yielded an IC50 in experiment [6] of 10.7 nM.

B12: VHH 00932 (VHH, not shown: small tags and cut ends)
VHH: EVQLVESGGGLVQPGGSLRLSCAVSGITLDDYAIGWFRQAPGKEREGVSSIRDNGGSTYYADSVKGRFTISSDNSKNTVYLQMNSLRPEDTAVYYCAAVPAGRLRYGEQWYPIYEYDAWGQGTLVTVSS
For the molecule B12, in experiment [4], the IC50 was found to be 0.049 nM. Moreover, in experiment [5], the hAng1/hAng2 IC50 ratio is > 206000.

B13: VHH 00936 (VHH, not shown: small tags and cut ends)
VHH: EVQLVESGGGLVQPGGSLRLSCAVSGITLDDYAIGWFRQAPGKEREGVSAIRDNGGSTYYADSVKGRFTISSDNSKNTVYLQMNSLRPEDTAVYYCAAVPAGRLRYGEQWYPIYEYDAWGQGTLVTVSS
Consider B13, for which the IC50 in experiment [4] stood at 0.045 nM. Moreover, in experiment [5], the hAng1/hAng2 IC50 ratio was > 224000.

B14: VHH 00048 (VHH, not shown: small tags and cut ends)
VHH: EVQLVESGGGLVQAGGSLRLSCAASGFTLDDYAIGWFRQAPGKEREGVSSIRDSDGSTYYADSVKGRFTISSDNDKNTVYLQMNSLKPEDTAVYYCAAVPAGRLRFGEQWYPLYEYDAWGQGTLVTVSS
In turn, B14 registered an IC50 in experiment [6] of 0.6 nM.

B15: VHH 00937 (VHH, not shown: small tags and cut ends)
VHH: EVQLVESGGGLVQPGGSLRLSCAVSGITLDDYAIGWFRQAPGKEREGVSAIRESGGSTYYADSVKGRFTISSDNSKNTVYLQMNSLRPEDTAVYYCAAVPAGRLRYGEQWYPIYEYDAWGQGTLVTVSS
In experiment [4], B15 had an IC50 of 0.054 nM. In addition, the hAng1/hAng2 IC50 ratio in experiment [5] is > 186000.

B16: VHH 00041 (VHH, not shown: small tags and cut ends)
VHH: EVQLVESGGGLVQPGGSLRLSCAASGFTLDDYAIGWFRQAPGKEREGVSSIRDNDGSTYYADSVKGRFTISSDNAKNTVYLQMNSLRPEDTAVYYCAAVPAGRLRFGEQWYPLYEYDAWGQGTLVTVSS
In the case of B16, the IC50 in experiment [6] is 0.6 nM.

B17: VHH 00052 (VHH, not shown: small tags and cut ends)
VHH: EVQLVESGGGLVQPGGSLRLSCAASGFTLDDYAIGWFRQAPGKEREGVSSIRDNDGSTYYADSVKGRFTISSDNDKNTVYLQMNSLRPEDTAVYYCAAVPAGRLRFGEQWYPLYEYDAWGQGTLVTVSS
In the case of B17, the IC50 in experiment [6] amounted to 1 nM.

B18: VHH 00935 (VHH, not shown: small tags and cut ends)
VHH: EVQLVESGGGLVQPGGSLRLSCAASGITLDDYAIGWFRQAPGKEREGVSAIRSSGGSTYYADSVKGRFTISSDNSKNTVYLQMNSLRPEDTAVYYCAAVPAGRLRYGEQWYPIYEYDAWGQGTLVTVSS
In experiment [4], B18 displayed an IC50 of 0.068 nM. The hAng1/hAng2 IC50 ratio in experiment [5] was > 146000.

B19: VHH 00025 (VHH, not shown: small tags and cut ends)
VHH: EVQLVESGGGLVQAGGSLRLSCAASGFTLDDYAIGWFRQAPGKEREGVSTIRDSDGSTYYADSVKGRFTISSDNDKNTVYLQMNSLKPEDTAVYYCAAVPAGRLRFGEQWYPLYEYDAWGQGTLVTVSS
With B19, in experiment [6], the half-inhibitory concentration (IC50) is 2.1 nM.

B20: VHH 00934 (VHH, not shown: small tags and cut ends)
VHH: EVQLVESGGGLVQPGGSLRLSCAASGITLDDYAIGWFRQAPGKEREGVSAIRESGGSTYYADSVKGRFTISSDNSKNTVYLQMNSLRPEDTAVYYCAAVPAGRLRYGEQWYPIYEYDAWGQGTLVTVSS
B20 returned an IC50 in experiment [4] of 0.064 nM. The hAng1/hAng2 IC50 ratio in experiment [5] is > 157000.

B21: VHH 3F02 (VHH, not shown: small tags and cut ends)
VHH: EVQLVESGGGLVQVGDSLRLACAASGRTFSTYLMVGWFRQAPGKEREFAAGIWSSGDTAYADSVKGRFTISRDNAKNTVYLQMNSLKTEDTAVYYCAGSYDGNYYIPGFYKDWGQGTQVTVSS
As for B21, the IC50 in experiment [1] stood at 9.1 nM.

B22: VHH 10C06 (VHH, not shown: small tags and cut ends)
VHH: EVQLVESGGGLVQAGGSLRLSCVASGFTFDDYAIGWFRQAPGKEREGVSCISSSDGSTYYADSVKGRFTISGDNAKNTVYLQMNSLKPEDTAVYYCAAGITPCSDYTQTYEYDVWGQGTQVTVSS
In experiment [1], B22 came in with an IC50 of 7.7 nM.

B23: VHH 16G09 (VHH, not shown: small tags and cut ends)
VHH: EVQLVESGGGLVQAGGSLRLVCSASGIDFSINAMAWYRQAPGKQREWVAFMINDSSTDYTDSVKGRFTISRDSTKNILYLQMNNLNVEDTAVYYCNTAYEQHTYWGQGTQVTVSS
Consider B23, for which the IC50 in experiment [1] is 11.3 nM.

B24: VHH 21G10 (VHH, not shown: small tags and cut ends)
VHH: EVQLVESGGGLVQAGGSLRLSCAASGFTLDDYAIGWFRQAPGKEREGVSCISSSDGSTTYADSVKGRFTVSSDNAKNTVYLQMNSLKPEDTAVYYCAAGLRGRYYRGTYSLVCAPYEYDFWGQGTQVTVSS
Molecule B24 returned a half-inhibitory concentration (IC50) in experiment [1] of 6.2 nM.

B25: VHH 6H05 (VHH, not shown: small tags and cut ends)
VHH: EVQLVESGGGLVQAGGSLRLSCAASGFTFDDYAIGWFRQAPGKEREGVSCISSSDGSTAYADSVKGRFTISSDNAKNTVYLQMNSLKPEDTAVYYCTAVPATRRTPQMVAANVCWLAEYEYDYWGQGTQVTVSS
In turn, B25 had an IC50 in experiment [1] of 5.3 nM.

B26: VHH 14H02 (VHH, not shown: small tags and cut ends)
VHH: EVQLVESGGGLVQAGGSLRLSCAASGFTFDEYAIGWFRQAPGKEREGVSYISSSDGSTYYADSVKGRVTSSSDNAKNTVYLQMNSLKPEDTAVYYCAARPTLRVRLDNDRHHLLYEYEYDYWGQGTQVTVSS
For the molecule B26, in experiment [1], the IC50 turned out to be 64.4 nM.

B27: VHH 8A11 (VHH, not shown: small tags and cut ends)
VHH: EVQLVESGGGLVQAGGSLRLSCAASGRTFSSYAMGWFRQAPGKELEFVTAVSWSGGSTYYADSVKGRFTISRDSAKNTVYLQMNSLKPEDTAVYYCAAQSTIVEVTTLEAYDYWGQGTQVTVSS
Take B27: the % inh in experiment [2] was 67%; in experiment [3], 57%. Further, the half-maximal inhibitory concentration (IC50) in experiment [1] is 30.2 nM.
